Experimental data from patent publication US20210009686A1 (BEIJING XUANYI PHARMASCIENCES, published 2021).

Assays:
claudin 18.1 (CLDN18.1) [1] = molecular target: T1, claudin 18.1 (CLDN18.1) (human, UniProt P56856 1-261); experiment: FACS, hybridoma supernatant on HEK293-CLDN18.1
T1 construct: also called HEK293-CLDN18.1
From the text: (§1) Ten days after fusion, hybridoma supernatants were screened by FACS against HEK293-CLDN18.2, HEK293-CLDN18.1 and HEK293.

claudin 18.2 (CLDN18.2) [2] = molecular target: T2, claudin 18.2 (CLDN18.2) (human); experiment: FACS, hybridoma supernatant on HEK293-CLDN18.2;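 further: flow cytometry of hybridoma supernatants taken 10 days after fusion, applied to HEK293 cells stably expressing CLDN18.2, with MFI standing for mean fluorescence intensity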
T2 construct: also called Claudin 18 isotype 2; HEK293-CLDN18.2
From the text: as §1

claudin 18.1 (CLDN18.1) [3] = molecular target: T1, claudin 18.1 (CLDN18.1); experiment: in-cell ELISA, hybridoma supernatant on HEK293-CLDN18.1 cells
Method: (§2) In-cell ELISAs were performed as follows: 5×10³ HEK293-CLDN18.2 cells were seeded per well in a poly-L-lysine-coated 96-well plate. The plates were then incubated at 37° C. with 5% CO₂ for 2 days. Following incubation, culture media was removed from each well, and the HEK293-CLDN18.2 cells were blocked with 200 μl blocking buffer (3% BSA/PBS (pH 7.4)) per well for 1 hour at room temperature. Each hybridoma supernatant was incubated with cells at room temperature for 1 hour. Cells were gently washed 3 times with 200 μl PBS (pH 7.4) containing 1 mM Ca²⁺ and 0.5 mM Mg²⁺. Next, cells were incubated with 100 μl of HRP-conjugated goat anti-human IgG (H+L) antibody for 1 hour at room temperature. Following the incubation, the cells were washed three times with 200 μl PBS (pH 7.4) containing 1 mM Ca²⁺ and 0.5 mM Mg²⁺. 100 μl of 1-Step™ Ultra TMB-ELISA Substrate was added to each well, and the reactions were stopped by addition of 50 μl of stop solution. OD₄₅₀ was measured using CLARIOStar microplate reader. The in-cell ELISAs were repeated for each clone using HEK293-CLDN18.1 cells.

claudin 18.2 (CLDN18.2) [4] = molecular target: T2, claudin 18.2 (CLDN18.2); experiment: in-cell ELISA, hybridoma supernatant on HEK293-CLDN18.2 cells
Method: as §2

T1 sequence (P56856 whole entry): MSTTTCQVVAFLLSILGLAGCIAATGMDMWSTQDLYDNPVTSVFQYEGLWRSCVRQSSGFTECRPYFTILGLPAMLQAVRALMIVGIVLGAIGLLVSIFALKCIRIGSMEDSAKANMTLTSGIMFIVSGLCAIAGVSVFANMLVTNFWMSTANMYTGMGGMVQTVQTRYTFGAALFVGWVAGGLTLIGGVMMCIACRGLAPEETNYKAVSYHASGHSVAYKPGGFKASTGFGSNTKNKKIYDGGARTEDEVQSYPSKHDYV

Binder	MFI (claudin 18.1 (CLDN18.1) [1])	MFI (claudin 18.2 (CLDN18.2) [2])	OD450/µg IgG (claudin 18.1 (CLDN18.1) [3]) [OD450/µg IgG]	OD450/µg IgG (claudin 18.2 (CLDN18.2) [4]) [OD450/µg IgG]
hybridoma clone 5-K4-B (antibody, V domains shown, also called 5K41B) VH: EVQLQQSGPELVKPGASVKMSCKASGYTFISYLIHWVKQKPGQGLEWIGYINPYNDGTKYNEKFKGKATLTSDKSSSTASMEFSSLTSEDSAVYYCTRGDFWGQGTTLTVSS VL: DIVMTQSPSSLTVTAGEKVTMSCKSSQSLLNSGNQKNYLTWYQQKPGQPPKLLIYWASIRASGVPDRFTGSGSGTDFTLTISSVQAEDLALYYCLNDYSFPLTFGAGTKLELK	126000	70800	139	88.2
hybridoma clone 2-F13-A (antibody, V domains shown) VH: EVQLQQSGPELVKPGASVKMSCKASGYTFTNYVMHWVKQKPGQGLEWIGYINPFDDGTKYNEKFKGKATLTSDKSSSTAYMELSSLTSEDSAVYYCTRGDYWGQGTTLTVSS VL: DIVMTQSPSSLTVTAGEKVTMTCKSSQSLLNSGNQKNYLTWYQQKPGQPPKLLIYWASTRDSGVPDRFRGSGSGTDFTLTISSVQAEDLAVYYCLNDYSFPLTFGAGTKLELK	232000	138000	13.3	6.49
hybridoma clone 10-L9-A (antibody, V domains shown) VH: EVQLVESGGGLVKPGGSRKLSCAASGFTFSDYGMHWVRQAPEKGLEWIAYINSGSSTIYYADTVKGRFTISRDNAKNTLFLQMTSLRSEDTAMFYCARFARGNVLDYWGQGTSVTVSS VL: DIVMTQSPSSLTVTAGEKVTMSCRSSQSLLNSGNQRNYLTWYQQKPGHPPKLLIYWASTRESGVPDRFTGSGSGTDFTLTISGVQAEDLAVYYCQNGYSYPLTFGAGTKLEVK	–	127000	–	9.52
hybridoma clone 10-J10-B (antibody, V domains shown) VH: QVQLQQSGAELARPGASVKLSCKASGYTFTSWSISWVKQRTGQGLEWIGEIYPRSDNIHYNEKFKGKATLTADKSSSTVYMQLSSLTSEDSAVYFCARAYYGNSFAYWGQGTLVTVSA VL: DIVMTQSPSSLTVTAGEKVTMTCKSSQILLNSGNQKNYLTWYQQKPGQPPKLLIYWASTRESGVPDRFTGSGSGTDFSLTISSVQAEDLAIYYCQNDYYYPFTFGSGTKLEIK	20400	136000	3.05	102
hybridoma 1-B13-A (antibody, V domains shown) VH: QVQLQQSGAELARPGASVKLSCKASGYTFTVWSMSWVKQRTGQGLQWIGEIYPKSGNTHYNEKFKGKATLTADKSSSTVYMQLSSLTSEDSAVYFCARAYYGNSFAYWGQGTLVTVPA VL: DIVMTQSPSPLTVTAGEKATMSCKSSQSLLNSGNQRNYLTWYQQKPGQPPKLLIYWASTRESGVPDRFTGSGSGTDFSLTISSVQAEDLAVYYCQNDFIYPFTFGSGTKLEIK	10200	61900	–	–
hybridoma clone 9-M7-A (antibody, V domains shown) VH: EVQLVESGGALVKPGGSLKLSCAASGFTFSNYAMSWIRQTPEKRLEWVATIIIGGTYTYYPDSVKGRFTISRDNAKNTLYLQMSSLRSEDTALYYCARQVYGNSFAYWGQGTLVTVSA VL: DIVMTQSPSSLTVTAGEKVTMSCKSSQSLLNSGNQKNYLTWYQQKPGQPPKLLIYWASTRESGVPDRFTGSGSGTDFTLTISSVQAEDLAVYYCQNNYIYPFTFGSGTKLEIK	7740	70300	0.79	19.2
hybridoma clone 9-A13-B (antibody, V domains shown) VH: EVQLVESGGGLVKPGGSRKLSCAASGFSFSDYGMHWVRQAPEKGLEWVAHISSGSSTIYYADTMKGRFTISRDNAKNTLFLQMTSLRSEDTAMYYCARFARGNTMDYWGQGTSVTVSS VL: DIVMTQSPSSLTVTAGEKVTMSCKSSQSLLNSGNQKNYLTWYQQKPGQPPKLLIYWASTRESGVPDRFTGSGSGTDFTLTISSVQAEDLTVYYCQNGYSYPLTFGAGTKLELK	6930	61400	3.34	48.6
hybridoma clone 5-J22-A (antibody, V domains shown) VH: EVQLVESGGGLVKPGGSRKLSCAASGFTFSDYGMHWVRQAPEKGLEWVAHISSGSNIIHYADTLKGRFTISRDNAKNTLFLQMTSLRSEDTAMYYCARFARGNTMDYWGQGTSVTVSS VL: DIVMTQSPSSLTVTAGEKVTMSCKSSQSLLNSGNQKNYLTWYQQKPGQPPKLLIYWASTRESGVPDRFTGSGSGTDFTLTISSVQAEDLTVYYCQNAYSFPLTFGAGTKLELK	6390	46100	2.16	15.4
hybridoma clone 6-C5-A (antibody, V domains shown) VH: EVQLVESGGGLVKPGGSRKLSCAASGFTFSDYGMHWVRQAPEKGLEWVAYISSGSSTIYYADTMKGRFTISRDNAKNTLFLQMTSLRSEDTAMYYCTRFARGNTMDYWGQGTSVTVSS VL: DIVMTQSPSSLTVTAGEKVTMSCKSSQSLLNSGNQRNYLTWYQRKPGQPPKLLIYWASTRESGVPDRFTGSGSGTDFTLTISSVQAEDLTFYYCQNGYSYPLTFGAGTKLELK	8130	94700	1.04	12.2
hybridoma clone 9-C6-A (antibody, V domains shown) VH: EVQLVESGGGLVKPGGSRKLSCAASGFTFSDYGMHWVRQAPEKGLEWVAYISSGSSTIYYADTMKGRFTISRDNAKNTLFLQMTSLRSEDTAMYYCARFVRGNSMDYWGQGTSVTVSS VL: DIVMTQSPSSLTVTAGEKVTLSCKSSQSLLNSGNQKNYLTWYQQKPRQPPKLLIYWASTRESGVPDRFTGSGSGTDFTLTISNVQAEDLTVYYCQNAYSYPLTFGAGTKLELK	9700	52400	3.82	28.3
hybridoma clone 7-B15-A (antibody, V domains shown) VH: EVQLVESGGGLVKPGGSRKLSCAASGFTFSDYGMHWVRQAPEKGLEWIAHISSGSSTIYYADTMKGRFTISRDNAKNTLFLQMTSLRSEDTAMYYCARFVRGNALDYWGQGTSVTVSS VL: DIVMTQSPSSLTVTAGEKVTMNCKSSQSLLNSGNQKNYLTWYQQKPGQPPKLLIYWASTRESGVPDRFTGSGSGTDFTLTISSVQAEDLTVYYCQNGYSYPLTFGAGTKLELK	11200	105000	1.32	13.2
hybridoma clone 10-K12-A (antibody, V domains shown) VH: EVQLVESGGGLVKPGGSRKLSCAASGFTFSDYGMFWVRQAPEKGLEWVGYISSGSSNIYYADTVKGRFTISRDNAKNTLFLQMTSLRSEDTAMYYCARIARGNAMDYWGQGTSVTVSS VL: DIVMTQSPSSLTVTAGEKVTMSCKSSQSLLNSGNQKNYLTWYQQKPGQPPKLLIYWASTRESGVPDRFTGSGSGTDFTLTISSVQAEDLAIYYCQNDYFYPLTFGAGTKLELK	7910	48900	2.11	12.9
hybridoma clone 4-N1-A (antibody, V domains shown) VH: EVQLVNSGGGLVKPGGSRKLSCAASGFTFSDYGMHWVRQAPEKGLEWVAYISSGSSTIYYADTMKGRFTISRDNAKNTLFLQMTSLRSEDTAMYYCARFVRGNSMDYWGQGTSVTVSS VL: DIVMTQSPSSLTVTAGEKVTMSCKSSQSLLNSGNQKNYLTWYQQKPGQPPKLLIYWASTRESGVPDRFTGSGSGTDFTLTISSVQAEDLTVYYCQNAYSYPLTFGAGTKLELK	12100	80100	2.87	18
hybridoma clone 7-A21-A (antibody, V domains shown) VH: EVQLVESGGGLVKPGGSRKLSCAASGFTFSDYGMYWVRQAPEKGLEWLAYISSGSNTIYYADTVKGRFTISRDNAKNTLFLQMTSLRSEDTAMYYCARIARGNAMDYWGQGTSVTVSS VL: DIVMTQSPSSLTVTAGEKVTMSCKSSQSLLNSGNQKNYLTWYQQKPGQPPKLLIYWASTRESGVPDRFTGSGSGTDFTLTISSVQAEDLAVYYCQNDYIYPLTFGAGTKLGLK	6450	47000	2.51	18.4
hybridoma clone 7-E20-A (antibody, V domains shown) VH: EVQLVESGGGLVKPGGSRKLSCAASGFTFSDYGMHWVRQAPEKGLEWVAYISSGSSTIHYVDTMKGRFTISRDNAKNTLFLQMTSLRSEDTAMYYCARFARGNTLDYWGQGTSVTVSS VL: DIVMTQSPSSLTVTAGEKVTMSCKSSQSLFNTGNQKNYLTWYQQKPGQPPKLLIYWASTRESGVPDRFTGSGSGTDFTLTISSVQAEDLTVYYCQNGYSYPLTFGAGTKLELK	7460	72600	2.23	20.4
hybridoma clone 9-B11-A (antibody, V domains shown) VH: EVQLVESGGGLVKPGGSRKLSCAASGFTFSDYGMHWVRQAPEKGLEWVAYISSGSSPIYYADTVKGRFTISRDNAKNTLFLQMTSLRSEDTAMYYCARFARGNAMDYWGQGTSVTVSS VL: DIVMTQSPSSLTVTAGEKVTMSCKSSQSLLNSGNQKNYLTWYQQKPGQPPKLLIYWASTRDSGVPDRFTGSGSGTDFTLTISSVQAEDLAVYYCQNNYYYPLTFGAGTNLELK	7630	54100	2.18	25.9
